Measured values as given in PMC3124080.

Target: Trypanosoma cruzi uridine phosphorylase (Trypanosoma cruzi)
Assay: SEC

Trypanosoma cruzi uridine phosphorylase (enzyme)
stoichiometry N: 2
